Experiments:
[1] = system: peptide 23, Dap-substituted pyrene derivative at Y+3
[2] = system: peptide 25, Dab-modified pyrene analogue at Y-2

Chain of Yes (chain, as listed by the source): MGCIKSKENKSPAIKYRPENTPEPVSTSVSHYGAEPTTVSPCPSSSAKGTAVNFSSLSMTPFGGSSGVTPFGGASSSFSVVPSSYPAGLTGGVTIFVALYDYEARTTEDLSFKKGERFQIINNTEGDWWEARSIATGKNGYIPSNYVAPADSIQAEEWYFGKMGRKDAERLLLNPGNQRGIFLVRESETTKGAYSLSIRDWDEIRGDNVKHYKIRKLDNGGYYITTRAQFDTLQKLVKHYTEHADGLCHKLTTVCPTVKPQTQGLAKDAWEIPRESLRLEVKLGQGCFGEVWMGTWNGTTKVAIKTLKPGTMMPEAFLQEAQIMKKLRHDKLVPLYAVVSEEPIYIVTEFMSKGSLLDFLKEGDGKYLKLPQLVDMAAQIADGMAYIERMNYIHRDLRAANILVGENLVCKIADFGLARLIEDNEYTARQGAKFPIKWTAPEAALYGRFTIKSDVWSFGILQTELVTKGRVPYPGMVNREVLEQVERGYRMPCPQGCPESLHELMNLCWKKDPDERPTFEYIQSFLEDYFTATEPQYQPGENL
Chain of FynT (chain, as listed by the source): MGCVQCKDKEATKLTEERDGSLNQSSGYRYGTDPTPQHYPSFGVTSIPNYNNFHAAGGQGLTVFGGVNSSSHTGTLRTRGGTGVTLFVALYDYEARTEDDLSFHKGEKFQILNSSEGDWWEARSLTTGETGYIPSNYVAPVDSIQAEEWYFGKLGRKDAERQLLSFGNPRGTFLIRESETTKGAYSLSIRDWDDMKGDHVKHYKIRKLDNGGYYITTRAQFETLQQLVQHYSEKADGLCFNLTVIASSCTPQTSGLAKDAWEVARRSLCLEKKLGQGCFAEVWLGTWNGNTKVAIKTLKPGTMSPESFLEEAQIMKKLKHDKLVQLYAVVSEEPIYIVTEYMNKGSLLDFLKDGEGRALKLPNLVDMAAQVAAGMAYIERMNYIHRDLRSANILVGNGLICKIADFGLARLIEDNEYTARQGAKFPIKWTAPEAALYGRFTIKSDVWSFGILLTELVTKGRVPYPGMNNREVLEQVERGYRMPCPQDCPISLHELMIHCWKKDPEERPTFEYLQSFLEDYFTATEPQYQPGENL
Chain of TrkA (chain, as listed by the source): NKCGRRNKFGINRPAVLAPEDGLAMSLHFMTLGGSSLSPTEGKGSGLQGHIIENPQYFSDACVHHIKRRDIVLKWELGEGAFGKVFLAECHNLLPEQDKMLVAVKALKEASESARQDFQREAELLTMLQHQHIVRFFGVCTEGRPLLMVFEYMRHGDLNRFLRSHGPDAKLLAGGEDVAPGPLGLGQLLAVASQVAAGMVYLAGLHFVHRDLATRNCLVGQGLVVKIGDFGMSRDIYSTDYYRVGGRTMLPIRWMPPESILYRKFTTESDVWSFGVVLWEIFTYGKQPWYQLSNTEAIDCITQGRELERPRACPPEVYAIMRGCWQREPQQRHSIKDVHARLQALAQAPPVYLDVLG

Row | Substance | Km [1] | Vmax [1] | Km [2] | Vmax [2] | phosphorylation of the peptide (fluorescence) [1] | phosphorylation of the peptide (fluorescence) [2]
1 | Yes | 37 µM | 3.3 µmol/min/mg |  |  |  | 
2 | FynT | 69 µM | 0.24 µmol/min/mg |  |  |  | 
3 | TrkA | 350 µM | 1.1 µmol/min/mg |  |  |  | 
4 | LynA | 140 µM | 2.6 µmol/min/mg | 43 µM | 2.6 µmol/min/mg |  | 
5 | Fgr | 54 µM | 2.3 µmol/min/mg |  |  |  | 
6 | EGF |  |  |  |  | unable to effectively catalyze the phosphorylation of either 23 or 25 | unable to effectively catalyze the phosphorylation of either 23 or 25

— patent publication US20060211075
